B1: CA28-AEEAc-Lys(mPEG40K-succinyl) (peptide)
peptide: ICVWQDWGAHRCTK
modifications: N-terminal acetyl; 1-methyl-tryptophan at position 4; disulfide Cys2-Cys12; AEEAc between Thr13 and Lys; C-terminal amide; linear 40 kD mPEG (NOF ME-400CS) on the Lys side chain
B2: CA28-AEEAc-Lys-(PEG40k) (peptide)
peptide: ICVWQDWGAHRCTK
modifications: not fully specified; N-terminal acetyl; 1-methyl-tryptophan at position 4; disulfide Cys2-Cys12; AEEAc between Thr13 and Lys; C-terminal amide; linear monofunctional 40 kD PEG (NOF ME-400GS) on the Lys side chain
B3: (CA28-AEEAc)8-PEG40k (peptide)
peptide: ICVWQDWGAHRCTK
modifications: N-terminal acetyl; 1-methyl-tryptophan at position 4; disulfide Cys2-Cys12; AEEAc between Thr13 and Lys; C-terminal amide; Lys side chain coupled to an arm of an eight-arm 40 kD PEG (NOF HGEO-400GS)
B4: CA28-AEEAc-Lys(mPEG40K-hexanoyl) (peptide)
peptide: ICVWQDWGAHRCTK
modifications: N-terminal acetyl; 1-methyl-tryptophan at position 4; disulfide Cys2-Cys12; AEEAc between Thr13 and Lys; C-terminal amide; linear 40 kD mPEG (NOF ME-400HS) on the Lys side chain
B5: CA28-AEEAc-Lys(mPEG40K-carbonyl) (peptide)
peptide: ICVWQDWGAHRCTK
modifications: not fully specified; N-terminal acetyl; 1-methyl-tryptophan at position 4; disulfide Cys2-Cys12; AEEAc between Thr13 and Lys; C-terminal amide; linear 40 kD mPEG (NOF ME-400TS) on the Lys side chain

How the values were obtained:
Assay in all cases: cell-based or functional assay
complement component C3 [1] = target: T1, complement component C3 (human, UniProt P01024 23-1663)
complement component C3 [2] = target: T1, complement component C3; remark: listed apart in the source
complement component C3 [3] = target: T1, complement component C3; remark: listed apart in the source

Binder | IC50 (read off the curve), classical-pathway complement activation (C3b deposition ELISA, human plasma) (complement component C3 [1]) [nM] | IC50 on a molar basis (corrected for 7.5 CA28 moieties per molecule), classical complement inhibition assay (complement component C3 [2]) [nM] | IC50, classical complement inhibition assay (C3b deposition ELISA, human plasma), as a function of CA28 moiety concentration (complement component C3 [3]) [nM]
B1 | ~700 |  | 
B2 | ~700 |  | 
B3 |  | ~260 | 1930
B4 | ~700 |  | 
B5 | ~700 |  | 

Source: US20240285725A1 (APELLIS PHARMACEUTICALS, published 2024)
